Source: paper PMC9188649 (Molecular cell, 2022)

Target: the molecule itself
Test: cryo-EM structure

B1: hSARM1 (residues 28–724), sample for cryo-EM (enzyme, human, UniProt Q6SZW1 28-724, looked up)
chain: LAVPGPDGGGGTGPWWAAGGRGPREVSPGAGTEVQDALERALPELQQALSALKQAGGARAVGAGLAEVFQLVEEAWLLPAVGREVAQGLCDAIRLDGGLDLLLRLLQAPELETRVQAARLLEQILVAENRDRVARIGLGVILNLAKEREPVELARSVAGILEHMFKHSEETCQRLVAAGGLDAVLYWCRRTDPALLRHCALALGNCALHGGQAVQRRMVEKRAAEWLFPLAFSKEDELLRLHACLAVAVLATNKEVEREVERSGTLALVEPLVASLDPGRFARCLVDASDTSQGRGPDDLQRLVPLLDSNRLEAQCIGAFYLCAEAAIKSLQGKTKVFSDIGAIQSLKRLVSYSTNGTKSALAKRALRLLGEEVPRPILPSVPSWKEAEVQTWLQQIGFSKYCESFREQQVDGDLLLRLTEEELQTDLGMKSGITRKRFFRELTELKTFANYSTCDRSNLADWLGSLDPRFRQYTYGLVSCGLDRSLLHRVSEQQLLEDCGIHLGVHRARILTAAREMLHSPLPCTGGKPSGDTPDVFISYRRNSGSQLASLLKVHLQLHGFSVFIDVEKLEAGKFEDKLIQSVMGARNFVLVLSPGALDKCMQDHDCKDWVHKEIVTALSCGKNIVPIIDGFEWPEPQVLPEDMQAVLTFNGIKWSHEYQEATIEKIIRFLQGRSSRDSSAGSDTSLEGAAPMGPT
B1 was tested, and the “stoichiometry N” value was 8.
